Assay results from article PMC6775479.

Experiments:
[1] = target: HPV16 L1 protein (human papillomavirus type 16) (UniProt P03101)
[2] = target: L1-I peptide (HPV16 L1 residues 474-488) (human papillomavirus type 16); experiment: ITC; peptide (1 mM) in 50 mM phosphate buffer pH 7.4 in the sample cell; 3HP-β-LG or β-LG (50 μM) in the titration needle; 18°C, 2 μl injections
[3] = target: L1-II peptide (HPV16 L1 residues 493-505) (human papillomavirus type 16); experiment: as above

UniProt P03101, sequence (P03101 whole entry, the tested form may be a part): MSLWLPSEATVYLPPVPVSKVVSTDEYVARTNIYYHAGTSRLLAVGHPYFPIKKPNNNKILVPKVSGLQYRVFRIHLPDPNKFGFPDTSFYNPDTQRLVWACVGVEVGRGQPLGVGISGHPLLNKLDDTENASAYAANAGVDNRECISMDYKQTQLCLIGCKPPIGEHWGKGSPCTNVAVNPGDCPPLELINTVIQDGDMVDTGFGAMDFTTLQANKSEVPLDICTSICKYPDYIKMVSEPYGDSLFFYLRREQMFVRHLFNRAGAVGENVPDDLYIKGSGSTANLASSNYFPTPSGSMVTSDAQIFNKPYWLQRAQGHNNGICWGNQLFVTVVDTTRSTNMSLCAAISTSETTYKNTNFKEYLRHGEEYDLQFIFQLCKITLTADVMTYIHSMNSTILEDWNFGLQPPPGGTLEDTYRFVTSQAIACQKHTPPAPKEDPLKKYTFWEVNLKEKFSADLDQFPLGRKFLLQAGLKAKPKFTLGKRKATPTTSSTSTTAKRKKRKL

3-hydroxyphthalic anhydride (3HP)-modified bovine beta-lactoglobulin (from UniProt P02754 17-178)
inhibition of HPV16 PsV entry into HeLa cells (luciferase), IC50 [1]: 0.59 µg/mL
Ka [2]: 231000 M⁻¹
Ka [3]: 104000 M⁻¹
